Measurements reported in publication PMC5461540, “MOB1 Mediated Phospho-recognition in the Core Mammalian Hippo Pathway” (Molecular & Cellular Proteomics : MCP, 2017).

Biological target: MOB1B 2-216 (UniProt Q7L9L4)
Assay: SPOT peptide array overlaid with GST-MOB1B

Substance | binding against the reference (reference: nonphosphorylated T353 15-mer, sites T353) | binding against the reference (reference: nonphosphorylated T367 15-mer, sites T367)
MST1 (from UniProt Q13043) pT353 15-mer | stronger | –
MST1 (from UniProt Q13043) pT367 15-mer | – | stronger
